Source: patent publication US12018084B2, “Anti-CXCR2 antibodies and uses thereof” (Cephalon LLC, priority 2018, dated 2024)

Test system: hCXCR2 knock-in mice
Assay: House dust mite (HDM) severe asthma model in hCXCR2 knock-in mice
Assay type: in vivo, mouse
Settings: 10 mg/kg intraperitoneal days 5 and 12, versus vehicle
From the text: hCXCR2 knock-in mice were generated by use of homologous recombination in embryonic stem (ES) cells to insert the human CXCR2 into exon 1 of the mouse CXCR2 gene. The single coding exon of human CXCR2 was inserted into a vector with 5′ and 3′ arms homologous to the genomic location of the mouse coding exon of CXCR2, giving rise to a gene structure that coded for human CXCR2 but retained the mouse non-coding and regulatory elements. This vector was electroporated into C57B1/6 mouse ES cells which were incorporated into C57B1/6 mouse blastocysts and transplanted into pseudopregnant female mice. Pups were backcrossed to the parental C57B1/6 strain and offspring screened by southern blot for germline transmission of the human CXCR2 gene. Mice heterozygous for human CXCR2 were intercrossed to give a homozygous human CXCR2 line and phenotype was confirmed by analysis of binding of anti-mouse and anti-human CXCR2 antibodies by flow cytometry.
The anti-CXCR2 antibody BKO-4A8-mIgG1 (SEQ ID NOs: 113 and 114) was generated by formatting the variable heavy and light chains of BKO-4A8 onto an effector function-reduced mouse IgG1 constant region. Female hCXCR2 knock-in mice were subjected to sensitization with 50 μg HDM in complete Freund's adjuvant (CFA) administered by subcutaneous injection on day 0 and intranasal challenge with […] without CFA on day 14. Animals were treated with vehicle or BKO-4A8-mIgG1 (10 mg/kg) via intraperitoneal injection on days 5 and 12. Inflammatory responses were characterized at endpoint on day 16 by total and differential cell counts in bronchoalveolar lavage (BAL) fluid of the right lung. The left lung was fixed in 10% formalin for histopathology and mucus production assessment.
Statistical evaluation was performed using a Mann-Whitney nonparametric unpaired t test with outliers identified using Grubbs' test (Alpha=0.01) to discern statistically significant differences between the vehicle and treatment groups. All statistical analyses were performed using GraphPad Prism™ 7.01.

B1: BKO-4A8-mIgG1: BKO-4A8 variable chains on an effector function-reduced mouse IgG1 constant region (SEQ ID NOs: 113 and 114) (antibody)
heavy: EVQLLESGGGLVQPGGSLRLSCAASGFTFSSSTMSWVRQAPGKGLEWVSAISGRGRNTYYADSVKGRFTISRDNSRNTLYLQMNSLRAEDTAVYYCAIQMGYWGQGILVTVSSAKTTPPSVYPLAPGSAAQTNSMVTLGCLVKGYFPEPVTVTWNSGSLSSGVHTFPAVLQSDLYTLSSSVTVPSSPRPSETVTCNVAHPASSTKVDKKIVPRDCGCKPCICTVPEVSSVFIFPPKPKDVLTITLTPKVTCVVVAISKDDPEVQFSWFVDDVEVHTAQTQPREEQFNSTFRSVSELPIMHQDWLNGKEFKCRVNSAAFPAPIEKTISKTKGRPKAPQVYTIPPPKEQMAKDKVSLTCMITDFFPEDITVEWQWNGQPAENYKNTQPIMNTNGSYFVYSKLNVQKSNWEAGNTFTCSVLHEGLHNHHTEKSLSHSPG
light: QSALTQPPSASGSPGQSVTISCIGTSSDVGGYNYVSWYQQHPDKAPKLMIYEVNKRPSGVPDRFSGSKSGNTASLTVSGLQAEDEADYYCSSYAGNNNFGVFGGGTKLTVLGQPKSSPSVTLFPPSSEELETNKATLVCTITDFYPGVVTVDWKVDGTPVTQGMETTQPSKQSNNKYMASSYLTLTARAWERHSSYSCQVTHEGHTVEKSLSRADCS
modifications: effector function-reduced mouse IgG1 constant region; BKO-4A8-mIgG1 VH; BKO-4A8-mIgG1 VL
For B1, the goblet cell hyperplasia (p=0.0052) was “reduced goblet cell hyperplasia”, the “reduction in BAL eosinophil counts” value (p=0.017) was over 60% and the “reduction in BAL neutrophil counts” value (p=0.028) was over 60%.
